The values that follow come from paper PMC7618200 (The Biochemical journal, 2025).

Sequences and labels used below:
B1: MyD88 peptide 125AEKPLQVAAVDSSVPRT141 (17-mer) [human] / SPOP MATH domain (SPOP^MATH; residues 28-166) [human] (parent complex)
chain 1: AEKPLQVAAVDSSVPRT
chain 2: KVVKFSYMWTINNFSFCREEMGEVIKSSTFSSGANDKLKWCLRVNPKGLDEESKDYLSLYLLLVSCPKSEVRAKFKFSILNAKGEETKAMESQRAYRFVQGKDWGFKKFIRRDFLLDEANGLLPDDKLTLFCEVSVVQD

The assay covers variants of B1. Put plainly: FP competition assay; competitor against fluorescently labeled Puc peptide.
One may read the IC50 as the midpoint of a concentration-inhibition curve. As for chain 1 AEKPLQVAAVAAAVPRT [chain 1 D11A, chain 1 S12A, chain 1 S13A], the IC50 was roughly 2.11 mM.
